Test results as given in patent US20230002480A1.

How the values were obtained:
Experiment in all cases: cell-based or functional assay
[1] = molecular target: HIV-1 Env of pseudovirus CAAN5342.A2 (HIV-1)
[2] = molecular target: HIV-1 Env of pseudovirus T250-4 (HIV-1)
[3] = molecular target: HIV-1 Env of pseudovirus 1394C9G1(Rev-) (HIV-1)
[4] = molecular target: HIV-1 Env of pseudovirus 191084 B7-19 (HIV-1)
[5] = molecular target: HIV-1 Env of pseudovirus 231965.c01 (HIV-1)
[6] = molecular target: HIV-1 Env of pseudovirus REJO4541.67 (HIV-1)
[7] = molecular target: HIV-1 Env of pseudovirus ZM53M.PB12 (HIV-1)
[8] = molecular target: HIV-1 Env of pseudovirus 0260.v5.c36 (HIV-1)
[9] = molecular target: HIV-1 Env of pseudovirus BJOX010000.06.2 (HIV-1)
[10] = molecular target: HIV-1 Env of pseudovirus 0815.v3.c3 (HIV-1)
[11] = molecular target: HIV-1 Env of pseudovirus P0402_c2_11 (HIV-1)
[12] = molecular target: HIV-1 Env of pseudovirus WITO4160.33 (HIV-1)
[13] = molecular target: HIV-1 Env of pseudovirus Q23.17 (HIV-1)
[14] = molecular target: HIV-1 Env of pseudovirus HIV-16055-2.3 (HIV-1)
[15] = molecular target: HIV-1 Env of pseudovirus T278-50 (HIV-1)
[16] = molecular target: HIV-1 Env of pseudovirus 6952.v1.c20 (HIV-1)
[17] = molecular target: HIV-1 Env of pseudovirus THRO4156.18 (HIV-1)
[18] = molecular target: HIV-1 Env of pseudovirus Ce703010054_2A2 (HIV-1)
[19] = molecular target: HIV-1 Env of pseudovirus BF1266.431a (HIV-1)
[20] = molecular target: HIV-1 Env of pseudovirus 246F C1G (HIV-1)
[21] = molecular target: HIV-1 Env of pseudovirus 6480.v4.c25 (HIV-1)
[22] = molecular target: HIV-1 Env of pseudovirus BJOX015000.11.5 (HIV-1)
[23] = molecular target: HIV-1 Env of pseudovirus X1254_c3 (HIV-1)
[24] = molecular target: HIV-1 Env of pseudovirus SC422661.8 (HIV-1)
[25] = molecular target: HIV-1 Env of pseudovirus R3265.c06 (HIV-1)
[26] = molecular target: HIV-1 Env of pseudovirus BJOX025000.01.1 (HIV-1)
[27] = molecular target: HIV-1 Env of pseudovirus Du172.17 (HIV-1)
[28] = molecular target: HIV-1 Env of pseudovirus ZM197M.PB7 (HIV-1)
[29] = molecular target: HIV-1 Env of pseudovirus 3817.v2.c59 (HIV-1)
[30] = molecular target: HIV-1 Env of pseudovirus AC10.0.29 (HIV-1)
[31] = molecular target: HIV-1 Env of pseudovirus 7030102001E5(Rev-) (HIV-1)
[32] = molecular target: HIV-1 Env of pseudovirus 3016.v5.c45 (HIV-1)
[33] = molecular target: HIV-1 Env of pseudovirus X1193_c1 (HIV-1)
[34] = molecular target: HIV-1 Env of pseudovirus 89-F1_2_25 (HIV-1)
[35] = molecular target: HIV-1 Env of pseudovirus Du422.1 (HIV-1)
[36] = molecular target: HIV-1 Env of pseudovirus 6811.v7.c18 (HIV-1)

PGT128 (antibody)
IC50 [1]: 0.514 µg/mL | IC80 [1]: > 50 µg/mL | IC50 [2]: < 0.001 µg/mL | IC80 [2]: 0.007 µg/mL | IC50 [3]: 0.011 µg/mL | IC80 [3]: 0.034 µg/mL | IC50 [4]: 0.022 µg/mL | IC80 [4]: 0.152 µg/mL | IC50, titer in TZM.bl cells [5]: > 50 µg/mL | IC80, titer in TZM.bl cells [5]: > 50 µg/mL | IC50 [6]: > 50 µg/mL | IC80 [6]: > 50 µg/mL | IC50 [7]: > 50 µg/mL | IC80 [7]: > 50 µg/mL | IC50 [8]: 0.058 µg/mL | IC80 [8]: 0.162 µg/mL | IC50, titer in TZM.bl cells [9]: 4.82 µg/mL | IC80, titer in TZM.bl cells [9]: > 50 µg/mL | IC50, titer in TZM.bl cells [10]: 0.03 µg/mL | IC80, titer in TZM.bl cells [10]: 0.137 µg/mL | IC50, titer in TZM.bl cells [11]: 0.007 µg/mL | IC80, titer in TZM.bl cells [11]: 0.02 µg/mL | IC50 [12]: > 50 µg/mL | IC80 [12]: > 50 µg/mL | IC50 [13]: 0.009 µg/mL | IC80 [13]: 0.024 µg/mL | IC50 [14]: > 50 µg/mL | IC80 [14]: > 50 µg/mL | IC50, titer in TZM.bl cells [15]: 0.031 µg/mL | IC80, titer in TZM.bl cells [15]: 0.089 µg/mL | IC50, titer in TZM.bl cells [16]: > 50 µg/mL | IC80, titer in TZM.bl cells [16]: > 50 µg/mL | IC50 [17]: > 50 µg/mL | IC80 [17]: > 50 µg/mL | IC50 [18]: > 50 µg/mL | IC80 [18]: > 50 µg/mL | IC50 [19]: > 50 µg/mL | IC80 [19]: > 50 µg/mL | IC50 [20]: 0.005 µg/mL | IC80 [20]: 0.014 µg/mL | IC50, titer in TZM.bl cells [21]: 0.003 µg/mL | IC80, titer in TZM.bl cells [21]: 0.019 µg/mL | IC50, titer in TZM.bl cells [22]: 0.001 µg/mL | IC80, titer in TZM.bl cells [22]: 0.011 µg/mL | IC50, titer in TZM.bl cells [23]: > 50 µg/mL | IC80, titer in TZM.bl cells [23]: > 50 µg/mL | IC50 [24]: 1.08 µg/mL | IC80 [24]: 18.4 µg/mL | IC50, titer in TZM.bl cells [25]: > 50 µg/mL | IC80, titer in TZM.bl cells [25]: > 50 µg/mL | IC50, titer in TZM.bl cells [26]: > 50 µg/mL | IC80, titer in TZM.bl cells [26]: > 50 µg/mL | IC50 [27]: 0.028 µg/mL | IC80 [27]: 0.08 µg/mL | IC50 [28]: > 50 µg/mL | IC80 [28]: > 50 µg/mL | IC50, titer in TZM.bl cells [29]: 0.003 µg/mL | IC80, titer in TZM.bl cells [29]: 0.023 µg/mL | IC50 [30]: 0.008 µg/mL | IC80 [30]: 0.018 µg/mL | IC50 [31]: 0.007 µg/mL | IC80 [31]: 0.022 µg/mL | IC50, titer in TZM.bl cells [32]: > 50 µg/mL | IC80, titer in TZM.bl cells [32]: > 50 µg/mL | IC50, titer in TZM.bl cells [33]: > 50 µg/mL | IC80, titer in TZM.bl cells [33]: > 50 µg/mL | IC50, titer in TZM.bl cells [34]: > 50 µg/mL | IC80, titer in TZM.bl cells [34]: > 50 µg/mL | IC50 [35]: 0.039 µg/mL | IC80 [35]: 0.113 µg/mL | IC50, titer in TZM.bl cells [36]: 0.003 µg/mL | IC80, titer in TZM.bl cells [36]: 0.05 µg/mL
